# Results reported in US20200157236A1 (CELLDEX THERAPEUTICS, published 2020).
# Molecular target: T1, purified ALK protein (BLitz, Table 20) (Homo sapiens (Human), UniProt Q9UM73 19-1038, limits assumed)
# T1 construct: also called purified ALK proteins
# Assay: BLI (BLitz), mAb on Protein A tip, purified ALK in solution
# Protocol: Kinetic measurements of the monovalent affinity of the 96 humanized ALK antibody variants (Ab351-Ab446) were collected. Affinity ranking was performed using a BLitz® System (ForteBio, Menlo Park, Calif.). Humanized anti-ALK antibodies were immobilized at 0.5 mg/mL using Protein A tips. Once baseline stability was ensured, purified ALK proteins at 70 μg/mL were added. The resulting kinetic data were fit to a single binding site equation, from which the quoted monovalent KD values were derived.
# T1 sequence (Q9UM73 19-1038 limits assumed): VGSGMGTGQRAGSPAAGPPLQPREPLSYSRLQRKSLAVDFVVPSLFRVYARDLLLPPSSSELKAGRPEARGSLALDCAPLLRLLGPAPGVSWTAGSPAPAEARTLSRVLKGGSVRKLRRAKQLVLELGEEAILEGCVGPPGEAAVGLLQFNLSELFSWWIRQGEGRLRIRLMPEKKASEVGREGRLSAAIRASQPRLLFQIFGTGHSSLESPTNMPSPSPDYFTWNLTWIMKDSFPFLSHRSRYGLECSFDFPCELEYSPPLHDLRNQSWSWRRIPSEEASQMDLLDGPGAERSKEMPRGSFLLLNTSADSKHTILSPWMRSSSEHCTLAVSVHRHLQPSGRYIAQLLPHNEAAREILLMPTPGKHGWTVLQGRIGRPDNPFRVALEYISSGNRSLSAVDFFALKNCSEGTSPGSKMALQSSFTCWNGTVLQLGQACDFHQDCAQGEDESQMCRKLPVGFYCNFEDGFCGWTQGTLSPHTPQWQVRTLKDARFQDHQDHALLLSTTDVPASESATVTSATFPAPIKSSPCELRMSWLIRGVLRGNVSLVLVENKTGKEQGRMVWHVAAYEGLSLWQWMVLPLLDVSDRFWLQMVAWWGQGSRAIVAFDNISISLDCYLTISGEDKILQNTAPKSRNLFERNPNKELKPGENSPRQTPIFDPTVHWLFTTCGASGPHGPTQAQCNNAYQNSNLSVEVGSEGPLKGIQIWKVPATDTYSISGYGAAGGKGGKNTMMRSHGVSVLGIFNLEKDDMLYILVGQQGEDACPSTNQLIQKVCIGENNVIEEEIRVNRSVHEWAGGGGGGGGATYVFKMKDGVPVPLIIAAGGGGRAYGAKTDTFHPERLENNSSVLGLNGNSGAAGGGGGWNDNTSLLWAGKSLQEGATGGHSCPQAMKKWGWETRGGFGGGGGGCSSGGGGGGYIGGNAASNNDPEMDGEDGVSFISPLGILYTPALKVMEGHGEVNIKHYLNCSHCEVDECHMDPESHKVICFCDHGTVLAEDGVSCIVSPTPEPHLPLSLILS
row,Binder,Kd
1,"Ab421 (antibody, V domains shown, humanized) VH: EVQLVQSGAEVKKPGSSVKVSCKASGYTFSSYWMHWVRQAPGQGLEWIGYIKPSSGYTKYNQKFKDKATLTADKSTSTAYMELSSLRSEDTAVYYCARDYYGSSSWFAYWGQGTLVTVSS VL: EIVMTQSQATLSTSPGERATLSCKASQNVGTNVAWYQQKPGQAPRALIYSASYRYSGVPARFSGSGSGTDFTLTISSVEPEDFAVYYCQQYNSYPYMYTFGQGTKLEIK",280 nM
2,"Ab444 (antibody, V domains shown, humanized) VH: EVQLVQSGAEVKKPGSSVKLSCKASGYTFTSYWMHWVRQAPGQGLEWIGYIKPSSGYTKYNQKFKDKATLTADKSTSTAYMELSSLRSEDTAVYYCARDYYGSSSWFAYWGQGTLVTVSS VL: EIVMTQSQATMSTSVGERATLSCKASQNVGTNVAWYQQKPGQSPKALIYGASTRATGVPARFSGSGSGTDFTLTISSVEPEDFAVYYCQQYNSYPYMYTFGQGTKLEIK",236 nM
3,"Ab433 (antibody, V domains shown, humanized) VH: EVQLVQSGAEVKKPGSSVKVSCKASGYTFSSYWMHWVRQAPGQGLEWIGYIKPSSGYTKYNQKFKDKATLTADKSTSTAYMELSSLRSEDTAVYYCARDYYGSSSWFAYWGQGTLVTVSS VL: EIVMTQSPATLSTSPGERATLSCRASQSVSSNLAWYQQKPGQAPRALIYSASYRYSGVPARFSGSGSGTDFTLTISSVEPEDFAVYYCQQYNSYPYMYTFGQGTKLEIK",197 nM
4,"Ab428 (antibody, V domains shown, humanized) VH: EVQLVQSGAEVKKPGASVKLSCKASGYTFTSYWMHWVRQAPGQGLEWIGYIKPSSGYTKYNQKFKDKATLTADKSTSTAYMELRSLRSDDTAVYYCARDYYGSSSWFAYWGQGTLVTVSS VL: EIVMTQSPATLSTSPGERATLSCRASQSVSSNLAWYQQKPGQAPRALIYSASYRYSGVPARFSGSGSGTDFTLTISSVEPEDFAVYYCQQYNSYPYMYTFGQGTKLEIK",253 nM
5,"Ab424 (antibody, V domains shown, humanized) VH: EVQLVQSGPEVKKPGTSVKLSCKASGYTFTSYWMHWVRQARGQRLEWIGYIKPSSGYTKYNQKFKDRATLTADKSTSTAYMELSSLRSEDTAVYYCARDYYGSSSWFAYWGQGTLVTVSS VL: EIVMTQSPATLSTSPGERATLSCRASQSVSSNLAWYQQKPGQAPRALIYSASYRYSGVPARFSGSGSGTDFTLTISSVEPEDFAVYYCQQYNSYPYMYTFGQGTKLEIK",247 nM
6,"Ab440 (antibody, V domains shown, humanized) VH: EVQLVQSGAEVKKPGASVKLSCKASGYTFTSYWMHWVRQAPGQGLEWIGYIKPSSGYTKYNQKFKDKATLTADKSTSTAYMELRSLRSDDTAVYYCARDYYGSSSWFAYWGQGTLVTVSS VL: EIVMTQSQATMSTSVGERATLSCKASQNVGTNVAWYQQKPGQSPKALIYGASTRATGVPARFSGSGSGTDFTLTISSVEPEDFAVYYCQQYNSYPYMYTFGQGTKLEIK",138 nM
7,"Ab443 (antibody, V domains shown, humanized) VH: QVQLVQSGAEVAKPGSSVKLSCKASGYTFTSYWMHWVKQAPGQGLEWIGYIKPSSGYTKYNQKFKDKATLTADKSTSTAYMELSSLRSEDTAVYYCARDYYGSSSWFAYWGQGTLVTVSS VL: EIVMTQSQATMSTSVGERATLSCKASQNVGTNVAWYQQKPGQSPKALIYGASTRATGVPARFSGSGSGTDFTLTISSVEPEDFAVYYCQQYNSYPYMYTFGQGTKLEIK",145 nM
8,"Ab422 (antibody, V domains shown, humanized) VH: EVQLVQSGAEVKKPGSSVKLSCKASGYTFSSYWMHWVKQAPGQGLEWIGYIKPSSGYTKYAQKFQGRVTLTADKSTSTAYMELSSLRSEDTAVYYCARDYYGSSSWFAYWGQGTLVTVSS VL: EIVMTQSQATLSTSPGERATLSCKASQNVGTNVAWYQQKPGQAPRALIYSASYRYSGVPARFSGSGSGTDFTLTISSVEPEDFAVYYCQQYNSYPYMYTFGQGTKLEIK",173 nM
9,"Ab445 (antibody, V domains shown, humanized) VH: EVQLVQSGAEVKKPGSSVKVSCKASGYTFSSYWMHWVRQAPGQGLEWIGYIKPSSGYTKYNQKFKDKATLTADKSTSTAYMELSSLRSEDTAVYYCARDYYGSSSWFAYWGQGTLVTVSS VL: EIVMTQSQATMSTSVGERATLSCKASQNVGTNVAWYQQKPGQSPKALIYGASTRATGVPARFSGSGSGTDFTLTISSVEPEDFAVYYCQQYNSYPYMYTFGQGTKLEIK",521 nM

# More lines, in order of falling Kd, values ahead:
row,Kd,Binder
1,2290 nM,"Ab425 (antibody, V domains shown, humanized) VH: EVQLVQSGAEVKKPGTSVKLSCKASGYTFTSSAMQWVKQAPGQGLEWIGYIKPSSGYTKYNQKFKDKATLTADKSTSTAYMELSSLRSEDTAVYYCARDYYGSSSWFAYWGQGTLVTVSS VL: EIVMTQSPATLSTSPGERATLSCRASQSVSSNLAWYQQKPGQAPRALIYSASYRYSGVPARFSGSGSGTDFTLTISSVEPEDFAVYYCQQYNSYPYMYTFGQGTKLEIK"
2,868 nM,"Ab426 (antibody, V domains shown, humanized) VH: EVQLVQSGAEVKKPGTSVKLSCKASGYTFTSYWMHWVRQARGQRLEWIGYIKPSSGYTKYAQKFQERVTLTADKSTSTAYMELSSLRSEDTAVYYCARDYYGSSSWFAYWGQGTLVTVSS VL: EIVMTQSPATLSTSPGERATLSCRASQSVSSNLAWYQQKPGQAPRALIYSASYRYSGVPARFSGSGSGTDFTLTISSVEPEDFAVYYCQQYNSYPYMYTFGQGTKLEIK"
3,337 nM,"Ab432 (antibody, V domains shown, humanized) VH: EVQLVQSGAEVKKPGSSVKLSCKASGYTFTSYWMHWVRQAPGQGLEWIGYIKPSSGYTKYNQKFKDKATLTADKSTSTAYMELSSLRSEDTAVYYCARDYYGSSSWFAYWGQGTLVTVSS VL: EIVMTQSPATLSTSPGERATLSCRASQSVSSNLAWYQQKPGQAPRALIYSASYRYSGVPARFSGSGSGTDFTLTISSVEPEDFAVYYCQQYNSYPYMYTFGQGTKLEIK"
4,326 nM,"Ab429 (antibody, V domains shown, humanized) VH: EVQLVQSGAEVAKPGASVKLSCKASGYTFTSYWMHWVRQAPGQGLEWIGYIKPSSGYTKYNQKFKDKATLTADKSTSTAYMELRSLRSDDTAVYYCARDYYGSSSWFAYWGQGTLVTVSS VL: EIVMTQSPATLSTSPGERATLSCRASQSVSSNLAWYQQKPGQAPRALIYSASYRYSGVPARFSGSGSGTDFTLTISSVEPEDFAVYYCQQYNSYPYMYTFGQGTKLEIK"
5,266 nM,"Ab423 (antibody, V domains shown, humanized) VH: QVQLVQSGAEVAKPGTSVKLSCKASGYTFTSYWMHWVKQAPGQGLEWIGYIKPSSGYTKYNQKFKDKVTLTADKSTSTAYMELSSLRSEDTAVYYCARDYYGSSSWFAYWGQGTLVTVSS VL: EIVMTQSPATLSTSPGERATLSCRASQSVSSNLAWYQQKPGQAPRALIYSASYRYSGVPARFSGSGSGTDFTLTISSVEPEDFAVYYCQQYNSYPYMYTFGQGTKLEIK"
6,252 nM,"Ab431 (antibody, V domains shown, humanized) VH: QVQLVQSGAEVAKPGSSVKLSCKASGYTFTSYWMHWVKQAPGQGLEWIGYIKPSSGYTKYNQKFKDKATLTADKSTSTAYMELSSLRSEDTAVYYCARDYYGSSSWFAYWGQGTLVTVSS VL: EIVMTQSPATLSTSPGERATLSCRASQSVSSNLAWYQQKPGQAPRALIYSASYRYSGVPARFSGSGSGTDFTLTISSVEPEDFAVYYCQQYNSYPYMYTFGQGTKLEIK"
7,211 nM,"Ab430 (antibody, V domains shown, humanized) VH: EVQLVQSGAEVKKPGASVKLSCKASGYTFTSYWMHWVRQAPGQGLEWIGYIKPSSGYTKYAQKLQGRVTLTADKSTSTAYMELRSLRSDDTAVYYCARDYYGSSSWFAYWGQGTLVTVSS VL: EIVMTQSPATLSTSPGERATLSCRASQSVSSNLAWYQQKPGQAPRALIYSASYRYSGVPARFSGSGSGTDFTLTISSVEPEDFAVYYCQQYNSYPYMYTFGQGTKLEIK"
8,170 nM,"Ab417 (antibody, V domains shown, humanized) VH: EVQLVQSGAEVAKPGASVKLSCKASGYTFTSYWMHWVRQAPGQGLEWIGYIKPSSGYTKYNQKFKDKATLTADKSTSTAYMELRSLRSDDTAVYYCARDYYGSSSWFAYWGQGTLVTVSS VL: EIVMTQSQATLSTSPGERATLSCKASQNVGTNVAWYQQKPGQAPRALIYSASYRYSGVPARFSGSGSGTDFTLTISSVEPEDFAVYYCQQYNSYPYMYTFGQGTKLEIK"
9,167 nM,"Ab441 (antibody, V domains shown, humanized) VH: EVQLVQSGAEVAKPGASVKLSCKASGYTFTSYWMHWVRQAPGQGLEWIGYIKPSSGYTKYNQKFKDKATLTADKSTSTAYMELRSLRSDDTAVYYCARDYYGSSSWFAYWGQGTLVTVSS VL: EIVMTQSQATMSTSVGERATLSCKASQNVGTNVAWYQQKPGQSPKALIYGASTRATGVPARFSGSGSGTDFTLTISSVEPEDFAVYYCQQYNSYPYMYTFGQGTKLEIK"
10,162 nM,"Ab427 (antibody, V domains shown, humanized) VH: QVQLVQSGAEVAKPGASVKLSCKASGYTFTSYWMHWVKQAPGQGLEWIGYIKPSSGYTKYNQKFKDKATLTADKSTSTAYMELRSLRSDDTAVYYCARDYYGSSSWFAYWGQGTLVTVSS VL: EIVMTQSPATLSTSPGERATLSCRASQSVSSNLAWYQQKPGQAPRALIYSASYRYSGVPARFSGSGSGTDFTLTISSVEPEDFAVYYCQQYNSYPYMYTFGQGTKLEIK"
11,131 nM,"Ab418 (antibody, V domains shown, humanized) VH: EVQLVQSGAEVKKPGASVKLSCKASGYTFTSYWMHWVRQAPGQGLEWIGYIKPSSGYTKYAQKLQGRVTLTADKSTSTAYMELRSLRSDDTAVYYCARDYYGSSSWFAYWGQGTLVTVSS VL: EIVMTQSQATLSTSPGERATLSCKASQNVGTNVAWYQQKPGQAPRALIYSASYRYSGVPARFSGSGSGTDFTLTISSVEPEDFAVYYCQQYNSYPYMYTFGQGTKLEIK"
12,107 nM,"Ab419 (antibody, V domains shown, humanized) VH: QVQLVQSGAEVAKPGSSVKLSCKASGYTFTSYWMHWVKQAPGQGLEWIGYIKPSSGYTKYNQKFKDKATLTADKSTSTAYMELSSLRSEDTAVYYCARDYYGSSSWFAYWGQGTLVTVSS VL: EIVMTQSQATLSTSPGERATLSCKASQNVGTNVAWYQQKPGQAPRALIYSASYRYSGVPARFSGSGSGTDFTLTISSVEPEDFAVYYCQQYNSYPYMYTFGQGTKLEIK"
